Residue numbers refer to the chain shown, from its start.
B1: antibody 470 (antibody, V domains shown)
VH: not shown
VL: QSALTQPASVSGSPGQSITISCTGTSSDVGSYNLVSWYQQHPGKAPKLMIYEVSKRPSGVSNRFSGSKSGNTASLTISGLQAEDEADYYCCSYAGSSTLVFGGGTKLTVL
B2: antibody 485 (antibody, V domains shown)
VH: QVQLQESGPGLVKPSGTLSLTCAVSGASISSSNWWSWVRQPPGKGLEWIGEIYHSGSTNYNPSLKSRVTISVDKSKNQFSLKLSSVTAADTAVYYCARRSYYGSGSYYPFDYWGQGTLVTVSS
VL: B1 VL with V53G, S54R, L99Y, G103T, L107V
B3: antibody 454 (antibody, V domains shown)
VH: QVQLVQSGAEVKKPGASLKVSCKASGYIFTGYYMHWVRQAPGQGLEWMGWISPNSGGTKYAQKFQGRVTMTRDTSISTAYMELSRLRSDDSAVYYCAREPYYDILTGYYTPRRYLDYWGQGTLVTVSS
VL: QSALTQPASVSGSPGQSITISCTGTSSDVGDYNYVSWYQQHPGKVPKLMIYDVSHRPSGVTNRFSGSKSGNTASLTISGLRAEDEADYYCSSYTSSSTYVFGTGTKVTVL
B4: antibody 477 (antibody, V domains shown)
VH: QVQLVESGGGVVQPGRSLRLSCAASGITFSSYAMHWVRQAPGKGLEWVAVISYDGSDKYHADSVKGRFAISRDNSKNTLYLQMNSLRAEDTAVYYCAKDKGIAVAGTGWIRPDPEYYFDYWGQGTLVTVSS
VL: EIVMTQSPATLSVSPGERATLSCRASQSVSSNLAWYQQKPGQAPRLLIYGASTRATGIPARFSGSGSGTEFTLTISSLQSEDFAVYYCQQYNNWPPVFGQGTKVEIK
B5: antibody 475 (antibody, V domains shown)
VH: QVQLVESGGGVVQPGRSLRLSCAASGFTFSSYAMHWVRQAPGKGLEWVTFISHEGSNKYYADSVKGRFTISRDNSKNTLYLQMNSLRAEDTAVYYCARTFEYSSSSATGDFDYWGQGTLVTVSS
VL: QSVLTQPPSVSGAPGQRVTISCTGSSSNIGAGYDVHWYQQLPGTAPKLLIYGNSNRPSGVPDRFSGSKSGTSASLAITGLQAEDEADYYCQSYDSSLSGVVFGGGTKLTVL
B6: antibody 476 (antibody, V domains shown)
VH: QVQLVQSGSELKKPGASVKVSCKASGYTFTSYAMNWVRQAPGQGLEWMGWINTNTGNPTYAQGFTGRFVFSLDTSVSTAYLQISSLKAEDTGVYYCARDHELPNSSSWFGHFEYWGQGTLVTVSS
VL: SYELTQPPSVSVSPGQTARITCSGDALPKQYAYWYQQKAGQAPVLVIYKDSERRSGIPERFSGSSSGTTVTLTISGVQAEDEADYYCQSADSSGTSVVFGGGTKLTVL
B7: antibody 474 (antibody, V domains shown)
VH: EVQLVESGGGLVQPGGSLRLSCAASGFTFSSYWMHWVRQAPGKGLVWVSRINSDGSSTSYADSVKGRFTISRDNAKNTLYRQMNSLRAEDTAVYYCALGPLDIVGSYYYYGMDVWGQGTTVTVSS
VL: NFMLTQPHSVSESPGKTVTISCTGSSGSIASNYVQWYQQRPGSAPTTVIYEDNQRPSGVPDRFSGSIDSSSNSASLTISGLKTEDEADYYCQSYDSSNQDVVFGGGTKLTVL
B8: antibody 556 (antibody, V domains shown)
VH: QVQLVESGGGVVQPGRSLRLSCAASGFTFSSYAMHWVRQAPGKGLEWVAVISYDGSDKYYADSVKGRVTISRDNSKNTLYLQMNSLRVEDTAVFYCAKDDCSGGVCFPDYWGQGTLVTVSS
VL: B1 VL with S31G, L34Y, K55I, D87A, C91S, A94T, G95S
B9: antibody 571 (antibody, V domains shown)
VH: EVQLVESGGGLVQPGGSLRLSCAASGFTFSTYWMTWVRQAPGKGLEWVANIKHDGSGKYHVDSVKGRFTISRDNAKNSLYLQMNSLRAEDTAVYYCTRDEGGWYDYWGQGTLVTVSS
VL: QSALTQPASVSGSPGQSITISCTGTSSDVGSYNPVSWYQQHPGKAPKVMIYEGSKRPSGVSNRFSGSKSGNTASLTISGLQAEDEADYYCCSYARSSTFVVFGGGTKLTVL
B10: antibody 560 (antibody, V domains shown)
VH: EVQLVESGGGLVQPGGSLRLSCAASGFTISSNYMSWVRQAPGKGLEWVSVIYSGGSTYYADSVKGRFTISRDNSKNTLYLQMNSLRAEDTAVYYCAREEGEWEKDYYGMDVWGQGTTVTVSS
VL: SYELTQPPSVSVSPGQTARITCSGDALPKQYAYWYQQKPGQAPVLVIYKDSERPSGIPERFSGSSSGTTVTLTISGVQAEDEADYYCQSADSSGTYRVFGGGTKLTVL
B11: antibody 566 (antibody, V domains shown)
VH: QVQLVQSGAEVKKPGASVKVSCKASGYTFTSYAMHWVRQAPGQRLEWMGWINAGNGNTKYSQKFQGRVTITRDTSASTAYMELSSLRSEDTAVYYCARDLGVAVTLHPADFDYWGQGTLVTVSS
VL: B5 VL with G52D, G99A
B12: antibody 545 (antibody, V domains shown)
VH: B6 VH with S85V
VL: B6 VL
B13: antibody 564 (antibody, V domains shown)
VH: QVHLVESGGGVVQPGKSLRLSCAASGFIFSSFGMHWVRQPPGKGLEWLAVVSYDGSVTKYSDSFEGRFTISRDNSKNTLYLQMDSLRPEDTAVYYCAKGQGTNLLHYWGQGILVTVSS
VL: DVVLSQSPLSLPVTLGQPASISCRSSESLVYTDGDTYLHWFHQRPGQSPRRLIFKVSHRESGVPDRISGSGSGTDFTLKISRVEAEDVGVYYCMQGTHWPFTFGPGTKVDIK
B14: antibody 544 (antibody, V domains shown)
VH: QVQLQQWGAGLLKPSETLSLTCAVYGGSFSGYYWSWIRQPPGKGLEWIGEINHSGSTNYNPSLKSRVTISVDTSKNQFSLKLSSVTAADTAVYYCARGFKWFGELLFGAQGTLVTVSS
VL: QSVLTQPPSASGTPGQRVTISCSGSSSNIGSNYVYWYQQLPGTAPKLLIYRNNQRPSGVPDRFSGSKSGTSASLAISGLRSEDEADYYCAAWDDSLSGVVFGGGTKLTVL
B15: antibody 563 (antibody, V domains shown)
VH: QVQLVESGGGVVQPGRSLRLSCAASGFTFSSYAMHWVRQAPGKGLEWVAVISDDGSNKYYADSVKGRFTISRDNSKNTLYLQMNSLRAEDTAVYYCARDIVATIRRLFDYWGQGTLVTVSS
VL: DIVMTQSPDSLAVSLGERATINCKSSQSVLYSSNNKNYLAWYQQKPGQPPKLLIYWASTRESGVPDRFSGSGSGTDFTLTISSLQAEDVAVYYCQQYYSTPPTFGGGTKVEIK
B16: antibody 548 (antibody, V domains shown)
VH: QVQLVESGGGVVQPGRSLRLSCAASGFTFSSYAMHWVRQAPGKGLEWVAVISYDGSNKYYADSVKGRFTISRDNSKNTLYLQMNNLRAEDTAVYYCAKSGSGSYLSAFDIWGQGTMVTVSS
VL: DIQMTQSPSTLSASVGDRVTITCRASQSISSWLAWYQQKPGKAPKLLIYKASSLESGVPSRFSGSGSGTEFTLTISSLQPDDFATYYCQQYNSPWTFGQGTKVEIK
B17: antibody 576 (antibody, V domains shown)
VH: B16 VH with N85S, S99A, S101G, L105Y, S106R, A107G, I110Y, M116L
VL: DIQLTQSPSFLSASVGDRVTITCRASQGISSYLAWYQQKPGKAPKLLIYAASTLQSGVPSRFSGSGSGTEFTLTISSLQPEDFATYYCQQLNSYPTFGPGTKVDIK
B18: antibody 569 (antibody, V domains shown)
VH: B16 VH with N85S, K98R, S99A, G100S, S103G, L105Q, S106G, A107P, I110P, M116L
VL: EIVLTQSPATLSLSPGERATLSCRASQSVSSYLAWYQQKPGQAPRLLIYDASNRATGIPARFSGSGSGTDFTLTISSLEPEDFAVYYCQQRSSPFGPGTKVDIK
B19: antibody 546 (antibody, V domains shown)
VH: QVQLVESGGGVVQPGRSLRLSCAASGFTFSSYGMHWVRQAPGKGLEWVAVIWYDGSNKYYADSVKGRFTISRDNSKNTLYLQMNSLRAEDTAVYYCARNCGGDCVAGDGFDYWGQGTLVTVSS
VL: DIQMTQSPSSLSASVGDRVTITCRASQSISSYLNWYQQKPGKAPNLLIYAASSLQSGVPSRFSGSGSGTDFTLTISSLQPEDFATYYCQQSYSALTWTFGQGTKVEIK
B20: anti-SARS-CoV-2 antibody 1000 (antibody, V domains shown)
VH: EVQLVESGGGLVQPGRSLRLSCAASGFTFDDYAMHWVRQAPGEGLEWVSGISWNSGSIGYADSVKGRFTISRDNAKNSLYLQMNSLRAEDTALYYCAKDTRFSFGTIAAAVSGYGMDVWGQGTTVTVSS
VL: QSALTQPASVSGSPGQSITISCTGTSSDVGIFNLVSWYQQHPGKAPKLMIYEVTKRPSGVSNRFSGSKSGNTASLTISGLQAEDEADYYCCSYAGSYVFGTGTKVTVL
B21: anti-SARS-CoV-2 antibody 966 (antibody, V domains shown)
VH: QVQLVESGGGVVQPGRSLRLSCAASEFTFSSYGMHWVRQAPGKGLEWVAVISHDGSNEYYADSVKGRFTISRDNSKNTLYLQMNSLRAEDTAVYYCAKWRGPHRGYYDRSGYYLGSSRDDYWGQGTLVTVSS
VL: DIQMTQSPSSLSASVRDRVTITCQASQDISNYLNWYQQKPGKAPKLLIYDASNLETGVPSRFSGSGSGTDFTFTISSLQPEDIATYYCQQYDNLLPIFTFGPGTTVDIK
B22: anti-SARS-CoV-2 antibody 989 (antibody, V domains shown)
VH: QVQLQESGPGLVKPSQTLSLTCTVSGGSISSGSYYWSWIRQPAGKGLEWIGRIYTSGSTNYNPSLKSRVTMSVDTSKNHFSLKLRSVTAADTAVYYCARGIAVAGDDDYYYYYGLDVWGQGTTVTVSS
VL: B6 VL with A39P, L45M, Y48N, R54P, Q88H, S96Y, V97W

These binders were tested against SARS-CoV spike protein (full length, trimeric) (SARS-CoV, UniProt P59594 14-1190) (assay: not given).

Binder | fold over isotype control (median fluorescence) [fold over isotype]
B1 | 1.09
B2 | 1.12
B3 | 1.1
B4 | 1.3
B5 | 1.18
B6 | 1.04
B7 | 1.1

The binders below were run against SARS-CoV spike protein (full-length trimeric, conjugated to optically encoded beads) (SARS-CoV, UniProt P59594 14-1190) (assay: not given).

Binder | fold over isotype control (median fluorescence intensity) [fold over isotype]
B8 | 1.09
B9 | 1.28
B10 | 1.14
B11 | 0.97
B12 | 1.13
B13 | 37.3
B14 | 1.05
B15 | 35.4
B16 | 18.1
B17 | 6.87
B18 | 3.31
B19 | 1.18

What follows are binders tested against SARS-CoV-2 spike protein (wild type), spike protein trimer (SARS-CoV-2, UniProt P0DTC2 14-1208) (assay: not given).

Binder | Kd [nM]
B20 | 0.092
B21 | 1.8
B22 | 0.104

Each binder was assayed against spike protein of SARS-CoV-2 clinical isolate USA/WA/1/2020 (live virus) (SARS-CoV-2, UniProt P0DTC2 14-1273) (assay: cell-based or functional assay).

Binder | Live Virus Neutralization IC50 [µg/mL]
B20 | 0.013
B21 | > 10
B22 | 1.5

These binders were tested against SARS-CoV-2 full-length spike protein on pseudotyped lentivirus (SARS-CoV-2, UniProt P0DTC2 14-1273) (assay: cell-based or functional assay).

Binder | Pseudo-neutralization IC50 [µg/mL]
B20 | 0.006
B21 | 0.021
B22 | 0.19
